The values below come from US20190135918A1 (ICHNOS SCIENCES, published 2019).

For assay [1], the target named is T1, human CD3 epsilon 1-26_Fc fusion protein (human).
T1 construct: also called human CD3 1-26_Fc fusion protein
Nature of the assay: SPR, CD3 epsilon 1-26 Fc coupled to the chip, antibody injected. (Surface plasmon resonance follows binding to a sensor surface in real time, without labels.)

Assay [2] addresses T2, F6 (peptide-Fc fusion derived from the extracellular domain of human CD38) (human, UniProt P0DOX5 195-449 = IgG part).
T2 construct: As F1; by count CD38 residues 108-120 (holds M110)
Nature of the assay: SPR.

Assay [3] has as its target T3, F3 (peptide-Fc fusion derived from the extracellular domain of human CD38) (human, UniProt P0DOX5 223-449 = IgG part).
T3 construct: As F1; by count CD38 residues 69-81; also called F3 construct
Nature of the assay: SPR, SAR650984 on the chip, peptide-Fc fusion injected.

The target in assay [4] is T4, F12 (peptide-Fc fusion derived from the extracellular domain of human CD38) (human, UniProt P0DOX5 223-449 = IgG part).
T4 construct: As F1; by count CD38 residues 186-198
Nature of the assay: SPR, humanized 9G7 immobilized on the chip, peptide-Fc fusion injected.

Assay [5] has as its target T5, F14 (peptide-Fc fusion derived from the extracellular domain of human CD38) (human, UniProt P0DOX5 223-449 = IgG part).
T5 construct: As F1; by count CD38 residues 212-224
The description is as above.

The target in assay [6] is T6, F16 (peptide-Fc fusion derived from the extracellular domain of human CD38) (human, UniProt P0DOX5 223-449 = IgG part).
T6 construct: As F1; by count CD38 residues 238-250
Described as above.

Assay [7] addresses T7, F19 (peptide-Fc fusion derived from the extracellular domain of human CD38) (human, UniProt P0DOX5 223-449 = IgG part).
T7 construct: As F1; by count CD38 residues 277-289
The description is as above.

Assay [8] deals with T8, F11 (peptide-Fc fusion derived from the extracellular domain of human CD38) (human, UniProt P0DOX5 223-449 = IgG part).
T8 construct: As F1; by count CD38 residues 173-185
The assay is described as above.

Assay [9] deals with T9, F15 (peptide-Fc fusion derived from the extracellular domain of human CD38) (human, UniProt P0DOX5 223-449 = IgG part).
T9 construct: As F1; by count CD38 residues 225-237
The assay is described as above.

The target of assay [10] is T10, F18 (peptide-Fc fusion derived from the extracellular domain of human CD38) (human, UniProt P0DOX5 223-449 = IgG part).
T10 construct: As F1; by count CD38 residues 264-276
Described as above.

The target in assay [11] is T11, F10 (peptide-Fc fusion derived from the extracellular domain of human CD38) (human, UniProt P0DOX5 223-449 = IgG part).
T11 construct: As F1; by count CD38 residues 160-172
The description is as above.

Assay [12] has as its target T12, F9 (peptide-Fc fusion derived from the extracellular domain of human CD38) (human, UniProt P0DOX5 223-449 = IgG part).
T12 construct: As F1; by count CD38 residues 147-159
Nature of the assay: SPR, antibody immobilized, peptide-Fc fusion injected.

Assay [13] concerns the target T13, F4 (peptide-Fc fusion derived from the extracellular domain of human CD38) (human, UniProt P0DOX5 223-449 = IgG part).
T13 construct: As F1; by count CD38 residues 82-94
The description is as above.

Assay [14] addresses T14, F2 (peptide-Fc fusion derived from the extracellular domain of human CD38) (human, UniProt P0DOX5 223-449 = IgG part).
T14 construct: As F1; by count CD38 residues 56-68
The assay is described as above.

In assay [15] the target is T15, F17 (peptide-Fc fusion derived from the extracellular domain of human CD38) (human, UniProt P0DOX5 223-449 = IgG part).
T15 construct: As F1; by count CD38 residues 251-263
Described as above.

Assay [16] addresses T16, F1 (peptide-Fc fusion derived from the extracellular domain of human CD38) (human, UniProt P0DOX5 223-449 = IgG part).
T16 construct: 13-residue peptide fused to human IgG1 Fc (CH2-CH3) with an Ala-Ser linker; by count CD38 residues 43-55
The description is as above.

In assay [17] the target is T17, F5 (peptide-Fc fusion derived from the extracellular domain of human CD38) (human, UniProt P0DOX5 223-449 = IgG part).
T17 construct: As F1; by count CD38 residues 95-107
Described as above.

Assay [18] has as its target T18, F8 (peptide-Fc fusion derived from the extracellular domain of human CD38) (human, UniProt P0DOX5 223-449 = IgG part).
T18 construct: As F1; by count CD38 residues 134-146
Described as above.

The target in assay [19] is T3, F3 (peptide-Fc fusion derived from the …). The assay is described as above.
Assay [20] addresses T19, F7 (peptide-Fc fusion derived from the extracellular domain of human CD38) (human, UniProt P0DOX5 223-449 = IgG part).
T19 construct: As F1; by count CD38 residues 121-133
The description is as above.

The target in assay [21] is T20, F20 (peptide-Fc fusion derived from the extracellular domain of human CD38) (human, UniProt P0DOX5 223-449 = IgG part).
T20 construct: Final peptide of 11 amino acids, else as F1; by count CD38 residues 290-300
The assay is described as above.

For assay [22], the target named is T21, F13 (peptide-Fc fusion derived from the extracellular domain of human CD38) (human, UniProt P0DOX5 223-449 = IgG part).
T21 construct: As F1; by count CD38 residues 199-211
Described as above.

B1: BEAT CD38-9G7best-fit/CD3(SP34-Kappa2) antibody (bispecific antibody)
heavy: QVTLKESGPTLVKPTQTLTLTCTFSGLSLSTSGKGVGWIRQPPGKALEWLAHIWWDDDKRYNPALKSRLTITKDTSKNQVVLTMTNMDPVDTATYYCARIELGRSYVMDYWGQGTLVTVSSASTKGPSVFPLAPSSKSTSGGTAALGCLVKDYFPEPVTVSWNSGALTSGVHTFPAVLQSSGLYSLSSVVTVPSSSLGTQTYICNVNHKPSNTKVDKKVEPKSCDKTHTCPPCPAPEAAGGPSVFLFPPKPKDTLMISRTPEVTCVVVDVSHEDPEVQFKWYVDGVEVHNAKTKPREEQYNSTFRVVSVLTVLHQDWLNGKEYKCKVSNKALPAPIEKTISKTKGQPREPAVYTLPPSREEMTKNQVKLVCLVTGFYPSDIAVEWESSGQPENNYYTTPPMLDSDGSFSLVSWLNVDKSRWQQGNIFSCSVMHEALHNRFTQKSLSLSPGK
light: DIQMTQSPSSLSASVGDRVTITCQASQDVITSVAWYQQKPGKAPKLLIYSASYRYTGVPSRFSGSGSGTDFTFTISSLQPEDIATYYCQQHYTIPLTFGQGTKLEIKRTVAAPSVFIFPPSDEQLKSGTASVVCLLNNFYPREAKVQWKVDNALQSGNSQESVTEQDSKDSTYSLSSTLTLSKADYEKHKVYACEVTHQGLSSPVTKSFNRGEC
chain: EVQLVESGGGLVQPGGSLRLSCAASGFTFNTYAMNWVRQAPGKGLEWVARIRSKYNNYATYYADSVKGRFTISRDDSKNTLYLQMNSLRAEDTAVYYCVRHGNFGNSYVSYFAYWGQGTTVTVSSGGGGSGGGGSGGGGSEIVVTQSPATLSVSPGERATLSCRSSTGAVTAANYANWVQEKPGQAFRGLIGGANKRAPGVPARFSGSLSGDEATLTISSLQSEDFAVYYCALFYSNLWVFGQGTKLEIKGGGGTDKTHTCPPCPAPEAAGGPSVFLFPPKPKDTLMISRTPEVTCVVVDVSHEDPEVKFNWYVDGVEVHNAKTKPREEQYNSTYRVVSVLTVLHQDWLNGKEYKCKVSNKALPAPIEKTISKAKGQPREPEVATFPPSRDELTKNQVTLVCLVTGFYPSDIAVEWESNGQPENNYKTDPPLLESQGSFALSSRLRVDKSRWQQGNVFSCSVMHEALHNHYTQKSLSLSPG
notes: Third chain is the anti-CD3 epsilon scFv BEAT heavy chain with humanized SP34 VH5/VL32; also called 9G7xSP34(GV2)
One may read the Kd as the constant that tells how readily two partners part at equilibrium. As for B1, the affinity in assay [1], expressed as Kd, was 18 nM.

B2: SAR650984 antibody (antibody, human IgG1, kappa, V domains shown)
VH: QVQLVQSGAEVAKPGTSVKLSCKASGYTFTDYWMQWVKQRPGQGLEWIGTIYPGDGDTGYAQKFQGKATLTADKSSKTVYMHLSSLASEDSAVYYCARGDYYGSNSLDYWGQGTSVTVSS
VL: DIVMTQSHLSMSTSLGDPVSITCKASQDVSTVVAWYQQKPGQSPRRLIYSASYRYIGVPDRFTGSGAGTDFTFTISSVQAEDLAVYYCQQHYSPPYTFGGGTKLEIKR
notes: also called humanized SAR650984 antibody
Take B2: the figures for the binding result in assay [2] and in assay [3] were “binds” and “no binding (tested: not printed)”, respectively.

B3: humanized 9G7 antibody (best-fit version) as used in Example 10 (antibody, human IgG1, kappa, V domains shown)
VH: QVTLKESGPTLVKPTQTLTLTCTFSGLSLSTSGKGVGWIRQPPGKALEWLAHIWWDDDKRYNPALKSRLTITKDTSKNQVVLTMTNMDPVDTATYYCARIELGRSYVMDYWGQGTLVTVSS
VL: DIQMTQSPSSLSASVGDRVTITCQASQDVITSVAWFQQKPGKAPKLLIYSASYRYTGVPSRFSGSGSGTDFTFTISSLQPEDIATYYCQQHYTIPLTFGQGTKLEIKR
notes: also called h9G7
For B3, the binding result in assay [4], in assay [5], in [6], in assay [7], in assay [8] and in assay [9] was “no binding (tested: 15 nM)” each time. Further, the binding result in assay [10] is “no binding (tested: 15 nM)”; in assay [11], “no binding (tested: 15 nM)”; in assay [12], “no binding (tested: 15 nM; 200 nM)”; in [13], “no binding (tested: 15 nM; 200 nM)”; in [14], “no binding (tested: 15 nM; 200 nM)”; in [15], “no binding (tested: 15 nM; 200 nM)”. Moreover, the binding result in [16], in assay [17], in [18], in assay [19], in [20] and in assay [21] was “no binding (tested: 15 nM; 200 nM)” each time. Moreover, the binding result in assay [22] is on record as “no binding (tested: 15 nM; 200 nM)”.
